Results published in the supplement of paper PMC10126150.
± gives the standard deviation of the averaged measurements.

The sequences below were run on ATP (assay: switch fluorescence ratio, 500 uM ATP over buffer (Cy3 cluster intensity, sum of 5 cycles each) (fold (ratio)); higher = stronger signal-on switching upon ATP binding; sequences stand for … in TCGTCGGCAGCGTCAGATGTGTATAAGAGACAGTTTTTTTTTTTTTTTTTTTTTTTTT…TC). Details: aptamer strand: ATP DNA aptamer (quencher-CACCTGGGGGAGTATTGCGGAGGAAGG + anchor), 100 nM annealed; ATP concentration: 500 uM.
Summary of the method: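 Switching-strand clusters labelled with Cy3 on a modified Illumina MiSeq flow-cell were annealed to 100 nM quencher-labelled ATP aptamer, imaged in selection buffer, and re-imaged after 15 min with 500 uM ATP at 22 °C. This was done over five cycles with NaOH stripping and re-annealing in between. The fluorescence ratio is summed target-cycle over summed buffer-cycle Cy3 intensity per cluster, averaged per switch-domain sequence, excluding clusters outside 100-1000 RFU.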
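Further: ATP exposure 15 min at 22 °C before imaging.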

In order of rising switch fluorescence ratio:
1. GCCTGATTTA  0.95 ± 0.029
2. GCCAAATTAG  0.956 ± 0.011
3. GCAGTCCTTT  0.958 ± 0.029
4. GCCTTAGTCT  0.962 ± 0.098
5. GCCGTTAACG  0.969 ± 0.028
6. GCCTAGTATA  0.9714 ± 0.0049
7. GCCAAGGGAT  0.9721 ± 0.0082
8. GCCATATTGG  0.9715 ± 0.0077
9. GCATGACCAG  0.974 ± 0.026
10. GCATGTCAGT  0.9762 ± 0.00048
11. GCATTTTCAT  0.9766 ± 0.0094
12. GCCTAGTTGT  0.977 ± 0.028
13. GCCTGTTCGG  0.977 ± 0.024
14. GCATGTATAT  0.978 ± 0.045
15. GCCGGAAGGC  0.98 ± 0.076
16. GCCGGGGACC  0.98 ± 0.031
17. GCCCTATCAT  0.981 ± 0.027
18. GCATGTATGG  0.983 ± 0.044
19. GCCTAATTTT  0.984 ± 0.021
20. GCCGAGAAGT  0.985 ± 0.027
21. GCCGTGGGAG  0.986 ± 0.052
22. GCAGGTTTTG  0.987 ± 0.04
23. GCCCACTATT  0.988 ± 0.01
24. GCAGTAGGGG  0.989 ± 0.015
25. GCATTTTCAG  0.989 ± 0.021
26. GCCCGTGGAA  0.9893 ± 0.0057
27. GCATGAAGTA  0.99 ± 0.017
28. GCAGTCTGGG  0.991 ± 0.01
29. GCATAAGGGG  0.992 ± 0.018
30. GCCTCTGGTC  0.992 ± 0.028
31. GCCGGCAAAT  0.995 ± 0.051
32. GCCAGGGAAA  0.9958 ± 0.0046
33. GCCGGTGCTC  0.996 ± 0.021
34. GCATGGCCTA  0.997 ± 0.021
35. GCCGATAGGG  0.9975 ± 0.0039
36. GCAGTAGCTG  0.998 ± 0.011
37. GCAGTTGCTG  0.999 ± 0.02
38. GCCGGGCGGG  0.999 ± 0.038
39. GCAGTGGGGG  1 ± 0.08
40. GCATAGGTTA  1 ± 0.015
41. GCATCACGTT  1 ± 0.029
42. GCATCTGTAG  1 ± 0.067
43. GCATGTCTTG  1 ± 0.028
44. GCATGTGAAA  1 ± 0.015
45. GCATTGTGTA  0.9995 ± 0.003
46. GCATTTAATG  1 ± 0.05
47. GCCCCTGTTT  1 ± 0.023
48. GCCCTGATGG  1 ± 0.035
49. GCCGCGCGCT  1 ± 0.082
50. GCCGCGGGAA  1 ± 0.051
51. GCCGGGATGG  1 ± 0.031
52. GCCGTCGTTG  1 ± 0.019
53. GCCGTGTTGG  1 ± 0.032
54. GCCTGTTTTG  1 ± 0.046
55. GCAGTAAATA  1.009 ± 0.0086
56. GCATCGAGGC  1.01 ± 0.14
57. GCATGGAGGG  1.01 ± 0.025
58. GCATTAAGGG  1.01 ± 0.039
59. GCATTAATCG  1.01 ± 0.025
60. GCCAGAGAGG  1.005 ± 0.0091
61. GCCGGGGATG  1.007 ± 0.0024
62. GCCGGGGCGG  1.006 ± 0.0041
63. GCCGGTTTCT  1.01 ± 0.031
64. GCAGTCTGCC  1.02 ± 0.07
65. GCAGTGGGTT  1.02 ± 0.074
66. GCATAGAGCG  1.02 ± 0.065
67. GCATCCCGAG  1.02 ± 0.025
68. GCCAAATTGG  1.02 ± 0.0071
69. GCCATCGATC  1.017 ± 0.0079
70. GCCATTTGAC  1.02 ± 0.042
71. GCCGGGGAGC  1.02 ± 0.045
72. GCCGGGTCAG  1.02 ± 0.026
73. GCCTCGGGGC  1.02 ± 0.032
74. GCATGTCGGG  1.03 ± 0.015
75. GCATTGACGG  1.03 ± 0.02
76. GCCCGGGGCT  1.028 ± 0.0057
77. GCCGGGGACA  1.03 ± 0.053
78. GCCTAACGCG  1.03 ± 0.018
79. GCAGTTAAAC  1.04 ± 0.045
80. GCAGTTTTCA  1.04 ± 0.095
81. GCCGACTCTG  1.04 ± 0.048
82. GCCGAGGGGT  1.037 ± 0.008
83. GCCGGAAAGT  1.05 ± 0.07
84. GCCGGTCGTC  1.0461 ± 0.00046
85. GCATTTCCCG  1.06 ± 0.091
86. GCAGTCCGAG  1.07 ± 0.043
87. GCCGCCACCT  1.07 ± 0.019
88. GCAGTCAAGC  1.08 ± 0.011
89. GCATTCGCCT  1.08 ± 0.035
90. GCCCACCACA  1.08 ± 0.028
91. GCCCTCACGT  1.08 ± 0.081
92. GCCAGGTTCC  1.09 ± 0.034
93. GCCGCTACCT  1.11 ± 0.079
94. GCCGAAGTTA  1.12 ± 0.042
95. GCATTAAGAC  1.23 ± 0.091
96. GCCAGAGCGA  1.27 ± 0.0013
97. GCCGCATGTG  1.28 ± 0.036
98. GCCCGCAAGG  1.42 ± 0.015
99. GCCCCCTTGG  2.02 ± 0.026
100. GCCACAGTAC  3.04 ± 0.098
